Key:
Assay in all cases: cell-based or functional assay
[1] = target: HIV-1 JR-CSF Env N339A (HIV-1 isolate JR-CSF) (UniProt P20871)
[2] = target: HIV-1 MGRM-C-028 Env (pseudovirus) (HIV-1)
[3] = target: HIV-1 92RW020 Env (pseudovirus) (HIV-1)
[4] = target: HIV-1 APV13 Env (pseudovirus) (HIV-1)
[5] = target: HIV-1 envelope glycoprotein (Env) of isolate JRFL (HIV-1)
[6] = target: HIV-1 envelope glycoprotein (Env) of isolate MGRM-AG-005 (HIV-1)
[7] = target: HIV-1 envelope glycoprotein (Env) of isolate MGRM-C-026 (HIV-1)
[8] = target: HIV-1 93IN905 envelope glycoprotein (Env) (HIV-1)
[9] = target: HIV-1 92UG024 envelope glycoprotein (Env) (HIV-1)
[10] = target: HIV-1 92UG005 envelope glycoprotein (Env) (HIV-1)
[11] = target: HIV-1 APV6 envelope glycoprotein (Env) (HIV-1)
[12] = target: HIV-1 NL43 envelope glycoprotein (Env) on virus (HIV-1, clade B, isolate NL43)
[13] = target: HIV-1 Env of pseudovirus PVO.4 (HIV-1)
[14] = target: HIV-1 Env of pseudovirus DU156 (HIV-1)
[15] = target: HIV-1 Env of pseudovirus REJ04541 (HIV-1)
[16] = target: HIV-1 Env of pseudovirus ZM214 (HIV-1)
[17] = target: HIV-1 Env of isolate APV6 (clade B) (HIV-1)
[18] = target: HIV-1 Env of isolate MGRM-D-018 (clade D) (HIV-1)
[19] = target: HIV-1 Env of pseudovirus 92UG001 (HIV-1)
[20] = target: HIV-1 Env of isolate APV_13 (subtype B), on pseudovirus (HIV-1)
[21] = target: HIV-1 Env of isolate MG RM-D-029 (subtype D) (HIV-1)
[22] = target: HIV-1 Env of isolate MGRM-Chronic-B-001 (subtype B), on pseudovirus (HIV-1)
[23] = target: HIV-1 Env of isolate MGRM-Chronic-B-020 (subtype B), on pseudovirus (HIV-1)
[24] = target: HIV-1 Env of isolate MGRM-Chronic-B-003 (subtype B), on pseudovirus (HIV-1)
[25] = target: HIV-1 envelope glycoprotein (Env) of isolate MG RM-A-001 (HIV-1)
[26] = target: HIV-1 JR-CSF Env R304A (HIV-1 (isolate JR-CSF, clade B)) (UniProt P20871)
[27] = target: HIV-1 MGRM-C-026 Env (HIV-1 isolate MGRM-C-026 (clade C))
[28] = target: HIV-1 MGRM-D-018 Env (HIV-1 isolate MGRM-D-018 (clade D))
[29] = target: HIV-1 MGRM-AG-005 envelope glycoprotein (Env), clade AG pseudovirus (HIV-1)
[30] = target: HIV-1 92RW020 envelope glycoprotein (Env), clade A pseudovirus (HIV-1)
[31] = target: HIV-1 92TH021 envelope glycoprotein (Env), clade AE pseudovirus (HIV-1)
[32] = target: HIV-1 93UG077 envelope glycoprotein (Env), clade A pseudovirus (HIV-1)
[33] = target: HIV-1 MGRM-C-028 envelope glycoprotein (Env), clade C pseudovirus (HIV-1)

5329_C19 (PGT-136) (antibody), sequence (VH): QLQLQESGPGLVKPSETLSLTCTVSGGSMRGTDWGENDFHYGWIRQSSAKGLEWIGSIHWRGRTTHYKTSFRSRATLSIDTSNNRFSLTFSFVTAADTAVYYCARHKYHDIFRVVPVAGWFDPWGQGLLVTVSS
5329_C19 (PGT-136) (antibody), sequence (VL): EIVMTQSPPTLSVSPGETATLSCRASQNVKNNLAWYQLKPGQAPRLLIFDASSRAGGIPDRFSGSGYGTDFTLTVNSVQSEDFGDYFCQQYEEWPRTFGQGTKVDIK
1443_C16 (PG16) (TCN-116) (antibody), sequence (VH): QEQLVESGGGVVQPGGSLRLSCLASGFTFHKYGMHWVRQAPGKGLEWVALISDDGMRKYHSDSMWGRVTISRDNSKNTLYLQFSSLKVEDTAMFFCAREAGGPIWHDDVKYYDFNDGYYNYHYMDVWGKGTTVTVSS
1443_C16 (PG16) (TCN-116) (antibody), sequence (VL): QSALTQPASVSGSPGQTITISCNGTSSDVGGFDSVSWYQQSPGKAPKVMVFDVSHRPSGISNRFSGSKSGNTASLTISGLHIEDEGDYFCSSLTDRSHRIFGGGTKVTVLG

With 5147_N06 (PGT-130) (antibody) the Fold IC50 increase relative to wild-type [1] was 0.2 fold.
5123_A06 (PGT-125) (antibody) showed a Neutralization by PGT-125, IC50 [2] of 5.78 µg/mL, a Neutralization by PGT-125, IC80 [2] greater than 10 µg/mL and a Neutralization by PGT-125, IC90 [2] greater than 10 µg/mL. The Neutralization by PGT-125, IC95 [2] was greater than 10 µg/mL, the Neutralization by PGT-125, IC50 [3] was 0.0028 µg/mL and the Neutralization by PGT-125, IC80 [3] was 0.011 µg/mL. It also gave a Neutralization by PGT-125, IC90 [3] of 0.0248 µg/mL, a Neutralization by PGT-125, IC95 [3] of 0.0526 µg/mL and a Neutralization by PGT-125, IC50 [4] of 0.0128 µg/mL. It also gave a Neutralization by PGT-125, IC80 [4] of 0.0414 µg/mL, a Neutralization by PGT-125, IC90 [4] of 0.0821 µg/mL and a Neutralization by PGT-125, IC95 [4] of 0.154 µg/mL.
5141_B17 (PGT-126) (antibody) showed a Neutralization IC80 [5] of 0.0454 µg/mL, a Neutralization IC90 [5] of 0.09 µg/mL and a Neutralization IC95 [5] of 0.169 µg/mL. The neutralization IC50 [5] was 0.014 µg/mL, the Neutralization IC80 [6] was greater than 10 µg/mL and the Neutralization IC90 [6] was greater than 10 µg/mL. It also gave a Neutralization IC95 [6] greater than 10 µg/mL, a neutralization IC50 [6] of 1.35 µg/mL and a Neutralization IC80 [7] of 0.0345 µg/mL. The Neutralization IC90 [7] was 0.0831 µg/mL, the Neutralization IC95 [7] was 0.185 µg/mL and the neutralization IC50 [7] was 0.0076 µg/mL.
Substance 5329_C19 (PGT-136) (antibody) has a Neutralization IC80 [8] of 0.0623 µg/mL, a Neutralization IC90 [8] of 0.156 µg/mL and a Neutralization IC95 [8] of 0.379 µg/mL. It also gave a neutralization IC50 [8] of 0.0135 µg/mL, a Neutralization IC80 [9] of 0.619 µg/mL and a Neutralization IC90 [9] of 1.96 µg/mL. It also gave a Neutralization IC95 [9] of 5.97 µg/mL, a neutralization IC50 [9] of 0.0915 µg/mL and a Neutralization IC80 [10] greater than 10 µg/mL. It also gave a Neutralization IC90 [10] greater than 10 µg/mL, a Neutralization IC95 [10] greater than 10 µg/mL and a neutralization IC50 [10] greater than 10 µg/mL. The Neutralization IC80 [11] was greater than 10 µg/mL, the Neutralization IC90 [11] was greater than 10 µg/mL and the Neutralization IC95 [11] was greater than 10 µg/mL. The neutralization IC50 [11] was greater than 10 µg/mL.
4877_D15 (PGT-122) (antibody) was tested, and the Neutralization IC80 [12] was greater than 10 µg/mL, the Neutralization IC90 [12] was greater than 10 µg/mL and the Neutralization IC95 [12] was greater than 10 µg/mL. The neutralization IC50 [12] was greater than 10 µg/mL.
1443_C16 (PG16) (TCN-116) (antibody) showed an IC50, pseudovirus neutralization (TZM-bl assay) [13] of 12.3 µg/mL, an IC50, pseudovirus neutralization (TZM-bl assay) [14] of less than 0.01 µg/mL and an IC50, pseudovirus neutralization (TZM-bl assay) [15] of less than 0.01 µg/mL. It also gave an IC50, pseudovirus neutralization (TZM-bl assay) [16] greater than 25 µg/mL.
With 1496_C09 (PG9) (TCN-109) (antibody) the Neutralization IC80 [17] was 1.13 µg/mL, the Neutralization IC90 [17] was 3.21 µg/mL and the Neutralization IC95 [17] was 9.65 µg/mL. The neutralization IC50 [17] was 0.214 µg/mL, the Neutralization IC80 [18] was 0.18 µg/mL and the Neutralization IC90 [18] was 0.43 µg/mL. The Neutralization IC95 [18] was 1.05 µg/mL and the neutralization IC50 [18] was 0.0444 µg/mL.
PGV04 (antibody) was tested, and the IC50, pseudovirus neutralization [19] was 0.553 µg/mL, the IC50, single-round pseudovirus neutralization [20] was 1.23 µg/mL and the IC50 (µg/mL), pseudovirus neutralization [21] was 1.56 µg/mL. The IC50, single-round pseudovirus neutralization [22] was 0.048 µg/mL, the IC50, single-round pseudovirus neutralization [23] was 1.26 µg/mL and the IC50, single-round pseudovirus neutralization [24] was 0.258 µg/mL. The IC50 [25] was 6.78 µg/mL.
With 5145_B14 (PGT-127) (antibody) the Fold IC50 increase relative to wild-type [26] was 0.4 fold.
4838_L06 (PGT-121) (antibody) gave a Neutralization IC95 [27] of 0.0687 µg/mL, a Neutralization IC80 [28] of 0.0231 µg/mL and a Neutralization IC90 [28] of 0.0414 µg/mL. The Neutralization IC95 [28] was 0.0715 µg/mL.
For 4858_P08 (PGT-123) (antibody), the IC50, pseudovirus neutralization [29] was 0.104 µg/mL, the IC80 (pseudovirus neutralization) [29] was 1.28 µg/mL and the IC90 (pseudovirus neutralization) [29] was 6.38 µg/mL. For the same substance, the IC95 (pseudovirus neutralization) [29] was greater than 10 µg/mL, the IC50, pseudovirus neutralization [30] was 0.0038 µg/mL and the IC80 (pseudovirus neutralization) [30] was 0.0106 µg/mL. For the same substance, the IC90 (pseudovirus neutralization) [30] was 0.0194 µg/mL, the IC95 (pseudovirus neutralization) [30] was 0.0343 µg/mL and the IC50, pseudovirus neutralization [31] was greater than 10 µg/mL. The IC80 (pseudovirus neutralization) [31] was greater than 10 µg/mL, the IC90 (pseudovirus neutralization) [31] was greater than 10 µg/mL and the IC95 (pseudovirus neutralization) [31] was greater than 10 µg/mL. For the same substance, the IC50, pseudovirus neutralization [32] was 0.0303 µg/mL, the IC80 (pseudovirus neutralization) [32] was 0.143 µg/mL and the IC90 (pseudovirus neutralization) [32] was 0.35 µg/mL. For the same substance, the IC95 (pseudovirus neutralization) [32] was 0.78 µg/mL, the IC50, pseudovirus neutralization [33] was 0.443 µg/mL and the IC80 (pseudovirus neutralization) [33] was 2.8 µg/mL. It also gave an IC90 (pseudovirus neutralization) [33] of 7.11 µg/mL and an IC95 (pseudovirus neutralization) [33] greater than 10 µg/mL.

— patent US20240132578A1
